The record followed here is US20220251595A1, “ENGINEERED ATRLP23 PATTERN RECOGNITION RECEPTORS AND METHODS OF USE” (priority 2019, published 2022).

B1: AtRLP23+TM-AtBAK1-3×FLAG: AtRLP23 apoplastic, eJM and TM domains, AtBAK1 cytoplasmic domain, 3×FLAG; SEQ ID NO: 37, 38 (protein)
chain: MSKALLHLHFLSLFLLCCVCHSSIFTLNFHFTGIVACRPHQIQAFTKFTNEFDTRGCNNSDTFNGVWCDNSTGAVAVLQLRKCLSGTLKSNSSLFGFHQLRYVDLQNNNLTSSSLPSGFGNLKRLEGLFLSSNGFLGQVPSSFSNLTMLAQLDLSYNKLTGSFPLVRGLRKLIVLDLSYNHFSGTLNPNSSLFELHQLRYLNLAFNNFSSSLPSKFGNLHRLENLILSSNGFSGQVPSTISNLTRLTKLYLDQNKLTSSFPLVQNLTNLYELDLSYNKFFGVIPSSLLTLPFLAHLALRENNLAGSVEVSNSSTSSRLEIMYLGSNHFEGQILEPISKLINLKHLDLSFLNTSYPIDLKLFSSLKSLRSLDLSGNSISSASLSSDSYIPLTLEMLTLRHCDINEFPNILKTLKELVYIDISNNRMKGKIPEWLWSLPLLQSVTLGNNYFTGFQGSAEILVNSSVLLLYLDSNNFEGALPDLPLSIKGFGVASNSFTSEIPLSICNRSSLAAIDLSYNNFTGPIPPCLRNLELVYLRNNNLEGSIPDALCDGASLRTLDVSHNRLTGKLPRSFVNCSSLKFLSVINNRIEDTFPFWLKALPNLQVLTLRSNRFYGPISPPHQGPLGFPELRIFEISDNKFTGSLPPNYFVNWKASSRTMNQDGGLYMVYEEKLFDEGGYGYTDALDLQYKGLHMEQAKALTSYAAIDFSGNRLEGQIPESIGLLKALIAVNISNNAFTGHIPLSMANLENLESLDMSRNQLSGTIPNGLGSISFLAYINVSHNQLTGEIPQGTQITGQSKSSFEGNAGLCGLPLKESCFGTGAPPMYHQKQEDKEEEEEEEEEEEEVLNGRAVAIGYGSGLLLGLAIAQVIASYRRKKPQDHFFDVPAEEDPEVHLGQLKRFSLRELQVASDNFSNKNILGRGGFGKVYKGRLADGTLVAVKRLKEERTQGGELQFQTEVEMISMAVHRNLLRLRGFCMTPTERLLVYPYMANGSVASCLRERPESQPPLDWPKRQRIALGSARGLAYLHDHCDPKIIHRDVKAANILLDEEFEAVVGDFGLAKLMDYKDTHVTTAVRGTIGHIAPEYLSTGKSSEKTDVFGYGVMLLELITGQRAFDLARLANDDDVMLLDWVKGLLKEKKLEALVDVDLQGNYKDEEVEQLIQVALLCTQSSPMERPKMSEVVRMLEGDGLAERWEEWQKEEMFRQDFNYPTHHPAVSGWIIGDSTSQIENEYPSGPRSDYKDHDGDYKDHDLDAAAADYKDDDDK
modifications: Fusion protein
B2: AtRLP23-AtSOBIR1-3×FLAG: AtRLP23 apoplastic and eJM domains, AtSOBIR1 TM and cytoplasmic domains, 3×FLAG; SEQ ID NO: 29, 30 (protein)
chain: MSKALLHLHFLSLFLLCCVCHSSIFTLNFHFTGIVACRPHQIQAFTKFTNEFDTRGCNNSDTFNGVWCDNSTGAVAVLQLRKCLSGTLKSNSSLFGFHQLRYVDLQNNNLTSSSLPSGFGNLKRLEGLFLSSNGFLGQVPSSFSNLTMLAQLDLSYNKLTGSFPLVRGLRKLIVLDLSYNHFSGTLNPNSSLFELHQLRYLNLAFNNFSSSLPSKFGNLHRLENLILSSNGFSGQVPSTISNLTRLTKLYLDQNKLTSSFPLVQNLTNLYELDLSYNKFFGVIPSSLLTLPFLAHLALRENNLAGSVEVSNSSTSSRLEIMYLGSNHFEGQILEPISKLINLKHLDLSFLNTSYPIDLKLFSSLKSLRSLDLSGNSISSASLSSDSYIPLTLEMLTLRHCDINEFPNILKTLKELVYIDISNNRMKGKIPEWLWSLPLLQSVTLGNNYFTGFQGSAEILVNSSVLLLYLDSNNFEGALPDLPLSIKGFGVASNSFTSEIPLSICNRSSLAAIDLSYNNFTGPIPPCLRNLELVYLRNNNLEGSIPDALCDGASLRTLDVSHNRLTGKLPRSFVNCSSLKFLSVINNRIEDTFPFWLKALPNLQVLTLRSNRFYGPISPPHQGPLGFPELRIFEISDNKFTGSLPPNYFVNWKASSRTMNQDGGLYMVYEEKLFDEGGYGYTDALDLQYKGLHMEQAKALTSYAAIDFSGNRLEGQIPESIGLLKALIAVNISNNAFTGHIPLSMANLENLESLDMSRNQLSGTIPNGLGSISFLAYINVSHNQLTGEIPQGTQITGQSKSSFEGNAGLCGLPLKESCFGTGAPPMYHQKQEDKEEEEEEEEEEEEVLNGRVAAWILGFVVGAIGGTISGFVFSVLFKLIIQAIRGSEKPPGPSIFSPLIKKAEDLAFLENEEALASLEIIGRGGCGEVFKAELPGSNGKIIAVKKVIQPPKDADELTDEDSKFLNKKMRQIRSEINTVGHIRHRNLLPLLAHVSRPECHYLVYEYMEKGSLQDILTDVQAGNQELMWPARHKIALGIAAGLEYLHMDHNPRIIHRDLKPANVLLDDDMEARISDFGLAKAMPDAVTHITTSHVAGTVGYIAPEFYQTHKFTDKCDIYSFGVILGILVIGKLPSDEFFQHTDEMSLIKWMRNIITSENPSLAIDPKLMDQGFDEQMLLVLKIACYCTLDDPKQRPNSKDVRTMLSQIKHSDYKDHDGDYKDHDLDAAAADYKDDDDK
modifications: Fusion protein
B3: AtRLP23+TM-AtEFR-3×FLAG: AtRLP23 apoplastic, eJM and TM domains, AtEFR cytoplasmic domain, 3×FLAG; SEQ ID NO: 33, 34 (protein)
chain: MSKALLHLHFLSLFLLCCVCHSSIFTLNFHFTGIVACRPHQIQAFTKFTNEFDTRGCNNSDTFNGVWCDNSTGAVAVLQLRKCLSGTLKSNSSLFGFHQLRYVDLQNNNLTSSSLPSGFGNLKRLEGLFLSSNGFLGQVPSSFSNLTMLAQLDLSYNKLTGSFPLVRGLRKLIVLDLSYNHFSGTLNPNSSLFELHQLRYLNLAFNNFSSSLPSKFGNLHRLENLILSSNGFSGQVPSTISNLTRLTKLYLDQNKLTSSFPLVQNLTNLYELDLSYNKFFGVIPSSLLTLPFLAHLALRENNLAGSVEVSNSSTSSRLEIMYLGSNHFEGQILEPISKLINLKHLDLSFLNTSYPIDLKLFSSLKSLRSLDLSGNSISSASLSSDSYIPLTLEMLTLRHCDINEFPNILKTLKELVYIDISNNRMKGKIPEWLWSLPLLQSVTLGNNYFTGFQGSAEILVNSSVLLLYLDSNNFEGALPDLPLSIKGFGVASNSFTSEIPLSICNRSSLAAIDLSYNNFTGPIPPCLRNLELVYLRNNNLEGSIPDALCDGASLRTLDVSHNRLTGKLPRSFVNCSSLKFLSVINNRIEDTFPFWLKALPNLQVLTLRSNRFYGPISPPHQGPLGFPELRIFEISDNKFTGSLPPNYFVNWKASSRTMNQDGGLYMVYEEKLFDEGGYGYTDALDLQYKGLHMEQAKALTSYAAIDFSGNRLEGQIPESIGLLKALIAVNISNNAFTGHIPLSMANLENLESLDMSRNQLSGTIPNGLGSISFLAYINVSHNQLTGEIPQGTQITGQSKSSFEGNAGLCGLPLKESCFGTGAPPMYHQKQEDKEEEEEEEEEEEEVLNGRAVAIGYGSGLLLGLAIAQVIASYKRKKKNNASDGNPSDSTTLGMFHEKVSYEELHSATSRFSSTNLIGSGNFGNVFKGLLGPENKLVAVKVLNLLKHGATKSFMAECETFKGIRHRNLVKLITVCSSLDSEGNDFRALVYEFMPKGSLDMWLQLEDLERVNDHSRSLTPAEKLNIAIDVASALEYLHVHCHDPVAHCDIKPSNILLDDDLTAHVSDFGLAQLLYKYDRESFLNQFSSAGVRGTIGYAAPEYGMGGQPSIQGDVYSFGILLLEMFSGKKPTDESFAGDYNLHSYTKSILSGCTSSGGSNAIDEGLRLVLQVGIKCSEEYPRDRMRTDEAVRELISIRSKFFSSKTTITESPRDAPQSSPQEWMLNTDMHTMASDYKDHDGDYKDHDLDAAAADYKDDDDK
modifications: Fusion protein

The assay concerns corn protoplasts. Description: Calcium burst in transiently transfected corn protoplasts, R-GECO1.2 fluorescence reporter. In kind it is cell-based, Zea mays. As to conditions: Example 3, FIG. 4; 1 μM PpNLP20; 40 minutes; 384-well. The source says:
Following ligand (also known as elicitor) binding, PRRs are activated and induce a transient increase of cytosolic Ca^2+ concentration as part of a PTI response. […] In a high-throughput method, the kinetics of PRR-dependent transient variation of cytosolic Ca^2+ concentration can be measured with a fluorimeter or luminometer and in microplate formats of 96 or 384 wells.
Fluorescence was monitored using a fluorimeter equipped with a 100 Hz xenon flash lamp with excitation at 556 nm and emission measured at 585 nm for 100 ms, every 22.6 seconds for 42 minutes.
All of the AtRLP23 constructs have an operably linked 2×35S+Ω promoter construct (SEQ ID NO: 72) and an operably linked rbcS terminator (SEQ ID NO: 73)
Fluorescence was monitored using a fluorimeter equipped with a 100 Hz xenon flash lamp with excitation at 556 nm and emission measured at 585 nm for 30 ms, every 20.2 seconds for 40 minutes. For each fluorescence measurement, the transient change in R-GECO1.2 fluorescence (ΔF) are calculated from background corrected intensity values as (F-Fo), where F represents the average fluorescence intensity of the a batch of protoplasts treated with elicitor, and Fo represents the average fluorescence intensity of the same batch of protoplasts treated with a control solution that lacks the elicitor but is otherwise identical or essentially identical in composition to the solution comprising the elicitor.
On to B1, for which the “responsiveness to PpNLP20 treatment compared to AtRLP23-3×FLAG (total transient increase of fluorescence)” value was “reduced responsiveness”.
The value for B2 was “reduced responsiveness”; that for B3 was “comparable responsiveness”.
